Holding throughout (assay): ELISA (A450)
One assay concerns the target T1, human NKp30 (human, UniProt O14931 19-135).
T1 chain: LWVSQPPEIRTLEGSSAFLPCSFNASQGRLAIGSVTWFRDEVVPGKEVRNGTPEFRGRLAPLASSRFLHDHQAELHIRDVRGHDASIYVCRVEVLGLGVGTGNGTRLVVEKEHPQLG

The target in the next assay is T2, cynomolgus NKp30 (cynomolgus, UniProt P61483 19-135).
T2 chain: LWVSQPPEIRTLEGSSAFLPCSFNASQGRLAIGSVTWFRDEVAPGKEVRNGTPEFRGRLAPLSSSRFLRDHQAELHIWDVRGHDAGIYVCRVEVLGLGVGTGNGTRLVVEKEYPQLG

The next assay concerns the target Rat NKp30.

This is an account of results in US20210380691A1 (published 2021).

B1: hamster anti-NKp30 antibody 9D9 (antibody, V domains shown)
VH: QIQLQESGPGLVKPSQSLSLSCSVTGFSINTGGYHWNWIRQFPGKKVEWMGYIYSSGTTKYNPSLKSRISITRDTSKNQFFLQLNSVTTEDTATYYCARGDWHYFDYWGQGTMVAVSS
VL: SYTLTQPPLVSVALGQKATIICSGENLSDKYVHWYQQKPGRAPVMVIYENDKRPSGIPDQFSGSNSGNIATLTISKAQAGYEADYYCHCWDSTNSAVFGSGTHLTVL
The IC50 is the concentration needed to halve the response being measured. Read a low IC50 as higher potency. B1: the half-inhibitory concentration (IC50) in the assay with human NKp30 and with cynomolgus NKp30 was 0.89 nM in each case.

B2: 9D9-1C1 (antibody, V domains shown)
VH: QIQLQESGPGLVKPSQSLSLSCSVTGFSINTGGYHWNWIRQFPGKKVEWMGYIYSSGTTKYNPSLKSRISITRDTSKNQFFLQLNSVTTEDTATYYCARGDWHYFDYWGQGTMVAVSS
VL: SYTLTQPPLVSVALGQKATIICSGENLSDKYVHWYQQKPGRAPVMVIYENDKRPSGIPDQFSGSNSGNIATLTISKAQAGYEADYYCHCWDSTNSAVFGSGTHLTVL
B2 returned an IC50 with Rat NKp30 of 0.32 nM.
